The text below walks through data of patent publication US20190375786A1, “STABLE PEPTIDES AND METHODS OF USE THEREOF” (Fred Hutchinson Cancer Research Center, priority 2016, published 2019).

For one series, the target named is pepsin (Sus scrofa, UniProt P00791). As to the kind of experiment: Pepsin digestion resistance in simulated gastric fluid, RP-HPLC. The class given is in vitro ADME, porcine. On the set-up: purchased Sigma Aldrich P7012. The note with it: 500 U/ml pepsin in SGF pH 1.05, 30 minutes at 37.5° C.; HPLC peak vs untreated peptide. A digest of the protocol: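 Peptide (12.5 μg) incubated 30 min at 37.5 °C with or without 500 U/ml pepsin in simulated gastric fluid (pH 1.05; 2% NaCl in 0.7% HCl); some reactions quenched with 100 mM Tris and 10 mM DTT. Intact peptide followed by C-18 RP-HPLC (5–45% acetonitrile/0.1% TFA over 10 min) at 214 and 280 nm.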

Series [1] in a line: Resistance to elevated temperature, HPLC. The class given is physicochemical. The note with it: HPLC peak vs untreated peptide; for Resistance to Temperature (75° C.): 75° C. for one hour; for Resistance to Temperature (100° C.): 100° C. for one hour. A digest of the protocol: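 Peptides were incubated at room temperature, 70° C or 100° C for one hour in ddH2O; another protocol used 70° C, 75° C or 100° C for one hour in 0.5 mM PBS, then pelleting and analysis of the supernatant. Remaining peptide was measured by C-18 RP-HPLC, 5–45% acetonitrile/0.1% TFA over 10 min.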

A further series addresses trypsin (Sus scrofa, UniProt P00761). As to the kind of experiment: Trypsin digestion resistance of soluble peptide, RP-HPLC. The settings on record: 500 U/ml trypsin, 30 minutes at 37.5° C.; HPLC peak vs untreated peptide. On the set-up: purchased Sigma Aldrich 6567. The class given is in vitro ADME, porcine. A digest of the protocol: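 12.5 μg soluble peptide digested with 500 U/ml porcine trypsin in PBS, 30 min at 37.5° C; quenched with soybean trypsin inhibitor, with or without 10 mM DTT reduction afterwards. Intact peptide assessed by C-18 RP-HPLC, 5-45% acetonitrile/0.1% TFA gradient over 10 min.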

Series [2] can be described thus: Resistance to reduction by DTT, RP-HPLC. The class given is physicochemical. The settings on record: 10 mM DTT in PBS, room temperature, 30 minutes; HPLC peak vs untreated peptide. A digest of the protocol: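 Peptide (12.5 μg from a 2 mg/ml stock, or 0.015 mM final in PBS) was held 30 min at room temperature with or without 10 mM DTT. Reduced and non-reduced forms were compared by C-18 RP-HPLC using a 5–45% acetonitrile/0.1% TFA gradient over 10 min, with detection at 214 and 280 nm.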

The nature of series [3]: Combined resistance grouping of hitchin peptides (FIG. 27, from Table 2 data). The class given is physicochemical. The note with it: FIG. 27 grouping of hitchin peptides. As to the method:
As shown by the data in TABLE 2, the tested peptides of the present disclosure show a range of resistance to proteases, reduction, and high temperature. The peptides were classified as high, medium, or low for each condition. […] For example, after a peptide is treated at 100° C., if the HPLC peak of the peptide is mostly absent as compared to HPLC peak of the peptide not treated at 100° C., then the peptide is classified as low or having low resistance to 100° C. After a peptide is treated with reducing conditions, if there is no or very minimal HPLC peak that overlaps with the HPLC peak of the peptide not treated with reducing conditions, then the peptide is classified as low or having low resistance to reducing conditions.
The peptides with the highest resistance data were further analyzed. […] The six peptides that were further tested were peptides comprising the sequences of SEQ ID NO: 27, SEQ ID NO: 24, SEQ ID NO: 6, SEQ ID NO: 10, SEQ ID NO: 12, and SEQ ID NO: 57, which were all hitchins. […] FIG. 27C is a sequence analysis of SEQ ID NO: 27, SEQ ID NO: 24, SEQ ID NO: 6, SEQ ID NO: 10, SEQ ID NO: 12, and SEQ ID NO: 57 from FIG. 27B. FIG. 27C identifies which amino acids are present at each position in SEQ ID NO: 27, SEQ ID NO: 24, SEQ ID NO: 6, SEQ ID NO: 10, SEQ ID NO: 12, and SEQ ID NO: 57. For example, at position one, all peptide sequences comprise a G amino acid residue; at position two, all peptide sequences comprise an S amino acid residue; at position three, all peptide sequences comprise either G, Q, or V amino acid, or null; and at position four, all peptide sequences comprise V, R, or K amino acid, or null. […] SEQ ID NO: 167 and SEQ ID NO: 168 describe sequences of peptides that are particularly resistant to reduction, pepsin, 75° C., and 100° C., which would typically degrade peptides. […] Additionally, SEQ ID NO: 169 describes sequences of peptides that are also particularly resistant to trypsin.

Chain of pepsin (P00791 60-385): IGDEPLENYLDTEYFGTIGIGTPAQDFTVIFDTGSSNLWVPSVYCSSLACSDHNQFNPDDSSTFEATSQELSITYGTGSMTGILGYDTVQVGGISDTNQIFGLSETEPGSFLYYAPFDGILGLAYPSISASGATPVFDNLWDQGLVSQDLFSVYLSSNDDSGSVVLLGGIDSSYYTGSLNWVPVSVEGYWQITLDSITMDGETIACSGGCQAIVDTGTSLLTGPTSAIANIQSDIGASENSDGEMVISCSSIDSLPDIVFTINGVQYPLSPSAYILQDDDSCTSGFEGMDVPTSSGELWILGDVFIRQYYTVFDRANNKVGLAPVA
Chain of trypsin (P00761 9-231): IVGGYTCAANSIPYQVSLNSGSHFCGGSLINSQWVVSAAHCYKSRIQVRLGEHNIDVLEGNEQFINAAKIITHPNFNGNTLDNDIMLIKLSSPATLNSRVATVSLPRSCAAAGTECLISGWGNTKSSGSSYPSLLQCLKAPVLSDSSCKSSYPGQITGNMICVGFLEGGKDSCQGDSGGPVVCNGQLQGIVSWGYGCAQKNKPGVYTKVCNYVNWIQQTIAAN

Take “47 (GSAQEPVKGPVSTKPGSCPIILIRCAMLNPPNRCLKDTDCPGIKKCCEGSCGMACFVPQ) [compound 47]”: in the series with pepsin, the “Resistance to Pepsin (500 U/ml)” value is given as “Low (A peptide classified as low indicates that the majority (over 75%) of the HPLC peak of the treated peptide disappeared as compared to the HPLC peak of the untreated peptide)”. Further, in series [1], the “Resistance to Temperature (75° C.)” value is given as “High (A peptide classified as high indicates that the majority (at least 75%) of the HPLC peak of the treated peptide is still present as compared to the HPLC peak of the untreated peptide)” and the “Resistance to Temperature (100° C.)” value was “Low (A peptide classified as low indicates that the majority (over 75%) of the HPLC peak of the treated peptide disappeared as compared to the HPLC peak of the untreated peptide)”. The “Resistance to Trypsin (500 U/ml)” value with trypsin is recorded as “Low (A peptide classified as low indicates that the majority (over 75%) of the HPLC peak of the treated peptide disappeared as compared to the HPLC peak of the untreated peptide)”. Besides, the “Resistance to DTT Reduction (10 mM)” value in series [2] was “Low (A peptide classified as low indicates that the majority (over 75%) of the HPLC peak of the treated peptide disappeared as compared to the HPLC peak of the untreated peptide)”.

Regarding “48 (GSGIGDPVTCLKSGAICHPVFCPRRYKQIGTCGLPGTKCCKKP) [compound 48]”, the “Resistance to Pepsin (500 U/ml)” value with pepsin is recorded as “High (A peptide classified as high indicates that the majority (at least 75%) of the HPLC peak of the treated peptide is still present as compared to the HPLC peak of the untreated peptide)”. Also, in series [1], the “Resistance to Temperature (75° C.)” value was “High (A peptide classified as high indicates that the majority (at least 75%) of the HPLC peak of the treated peptide is still present as compared to the HPLC peak of the untreated peptide)” and the “Resistance to Temperature (100° C.)” value is “High (A peptide classified as high indicates that the majority (at least 75%) of the HPLC peak of the treated peptide is still present as compared to the HPLC peak of the untreated peptide)”. Moreover, the “Resistance to Trypsin (500 U/ml)” value in the series with trypsin is “Low (A peptide classified as low indicates that the majority (over 75%) of the HPLC peak of the treated peptide disappeared as compared to the HPLC peak of the untreated peptide)”. Further, the “Resistance to DTT Reduction (10 mM)” value in series [2] was “Low (A peptide classified as low indicates that the majority (over 75%) of the HPLC peak of the treated peptide disappeared as compared to the HPLC peak of the untreated peptide)”.

For the substance “49 (GSSFGLCRLRRGFCARGRCRFPSIPIGRCSRFVQCCRRVW) [compound 49]”, in the series with pepsin, the “Resistance to Pepsin (500 U/ml)” value is given as “High (A peptide classified as high indicates that the majority (at least 75%) of the HPLC peak of the treated peptide is still present as compared to the HPLC peak of the untreated peptide)”. Also, in series [1], the “Resistance to Temperature (75° C.)” value is listed as “High (A peptide classified as high indicates that the majority (at least 75%) of the HPLC peak of the treated peptide is still present as compared to the HPLC peak of the untreated peptide)” and the “Resistance to Temperature (100° C.)” value was “Low (A peptide classified as low indicates that the majority (over 75%) of the HPLC peak of the treated peptide disappeared as compared to the HPLC peak of the untreated peptide)”. Moreover, in the series with trypsin, the “Resistance to Trypsin (500 U/ml)” value is “Low (A peptide classified as low indicates that the majority (over 75%) of the HPLC peak of the treated peptide disappeared as compared to the HPLC peak of the untreated peptide)”. In addition, the “Resistance to DTT Reduction (10 mM)” value in series [2] is recorded as “Low (A peptide classified as low indicates that the majority (over 75%) of the HPLC peak of the treated peptide disappeared as compared to the HPLC peak of the untreated peptide)”.

In the case of “50 (GSLFCKGGSCHFGGCPSHLIKVGSCFGFRSCCKWPWNA) [compound 50]”, in the series with pepsin, the “Resistance to Pepsin (500 U/ml)” value is “Low (A peptide classified as low indicates that the majority (over 75%) of the HPLC peak of the treated peptide disappeared as compared to the HPLC peak of the untreated peptide)”. In addition, in series [1], the “Resistance to Temperature (75° C.)” value is “High (A peptide classified as high indicates that the majority (at least 75%) of the HPLC peak of the treated peptide is still present as compared to the HPLC peak of the untreated peptide)” and the “Resistance to Temperature (100° C.)” value is “Low (A peptide classified as low indicates that the majority (over 75%) of the HPLC peak of the treated peptide disappeared as compared to the HPLC peak of the untreated peptide)”. Further, the “Resistance to Trypsin (500 U/ml)” value with trypsin was “Low (A peptide classified as low indicates that the majority (over 75%) of the HPLC peak of the treated peptide disappeared as compared to the HPLC peak of the untreated peptide)”. Further, the “Resistance to DTT Reduction (10 mM)” value in series [2] is on record as “Low (A peptide classified as low indicates that the majority (over 75%) of the HPLC peak of the treated peptide disappeared as compared to the HPLC peak of the untreated peptide)”.

As for “52 (GSEGDCPISEAIKCVEKCKEKVEVCEPGVCKCSG) [compound 52]”, in the series with pepsin, the “Resistance to Pepsin (500 U/ml)” value is recorded as “High (A peptide classified as high indicates that the majority (at least 75%) of the HPLC peak of the treated peptide is still present as compared to the HPLC peak of the untreated peptide)”. Further, in series [1], the “Resistance to Temperature (75° C.)” value is recorded as “High (A peptide classified as high indicates that the majority (at least 75%) of the HPLC peak of the treated peptide is still present as compared to the HPLC peak of the untreated peptide)” and the “Resistance to Temperature (100° C.)” value was “High (A peptide classified as high indicates that the majority (at least 75%) of the HPLC peak of the treated peptide is still present as compared to the HPLC peak of the untreated peptide)”. The “Resistance to Trypsin (500 U/ml)” value with trypsin was “Low (A peptide classified as low indicates that the majority (over 75%) of the HPLC peak of the treated peptide disappeared as compared to the HPLC peak of the untreated peptide)”. In series [2], the “Resistance to DTT Reduction (10 mM)” value is “Low (A peptide classified as low indicates that the majority (over 75%) of the HPLC peak of the treated peptide disappeared as compared to the HPLC peak of the untreated peptide)”.

As to “GSAVCNLKRCQLSCRSLGLLGKCIGDKCECVKHG [SEQ ID NO: 8]”, the “combined resistance to reduction, pepsin and elevated temperatures such as 75° C. and 100° C.” value (“combined resistance to reduction” for short) in series [3] is “not highly resistant”.

With “GSGVPTDVKCRGSPQCIQPCKDAGMRFGKCMNGKCHCTPK [SEQ ID NO: 56]”, the “combined resistance to reduction” value in series [3] is recorded as “not highly resistant”.

As to “GSQIDTNVKCSGSSKCVKICIDRYNTRGAKCINGRCTCYP [SEQ ID NO: 35]”, in series [3], the “combined resistance to reduction” value is given as “not highly resistant”.

For “GSQKILSNRCNNSSECIPHCIRIFGTRAAKCINRKCYCYP [SEQ ID NO: 6]”, the “combined resistance to reduction” value in series [3] was “highly resistant”.

In the case of “GSQVQTNVKCQGGSCASVCRREIGVAAGKCINGKCVCYRN [SEQ ID NO: 30]”, in series [3], the “combined resistance to reduction” value is “not highly resistant”.

Consider “GSQVSTNKKCSNTSQCYKTCEKVVGVAAGKCMNGKCICYP [SEQ ID NO: 18]”, for which, in series [3], the “combined resistance to reduction” value is given as “not highly resistant”.

As for “GSRPTDIKCSASYQCFPVCKSRFGKTNGRCVNGLCDCF [SEQ ID NO: 10]”, in series [3], the “combined resistance to reduction” value was “highly resistant”.

For the substance “GSVRIPVSCKHSGQCLKPCKDAGMRFGKCMNGKCDCTPK [SEQ ID NO: 24]”, in series [3], the “combined resistance to reduction” value is “highly resistant”.

As to “GSVVIGQRCYRSPDCYSACKKLVGKATGKCTNGRCDC [SEQ ID NO: 36]”, in series [3], the “combined resistance to reduction” value is reported as “not highly resistant”.
